Test results from patent publication US20180080021.

Biological target: polymerized microtubules

B1: recombinant R293W mutant KIF3B motor domain (amino acids 1-365) with N-terminal 6x-Histidine tag (protein)
chain: MSKLKSSESVRVVVRCRPMNGKEKAASYDKVVDVDVKLGQVSVKNPKGTAHEMPKTFTFDAVYDWNAKQFELYDETFRPLVDSVLQGFNGTIFAYGQTGTGKTYTMEGIRGDPEKRGVIPNSFDHIFTHISRSQNQQYLVRASYLEIYQEEIRDLLSKDQTKRLELKERPDTGVYVKDLSSFVTKSVKEIEHVMNVGNQNRSVGATNMNEHSSRSHAIFVITIECSEVGLDGENHIRVGKLNLVDLAGSERQAKTGAQGERLKEATKINLSLSALGNVISALVDGKSTHIPYWDSKLTRLLQDSLGGNAKTVMVANVGPASYNVEETLTTLRYANRAKNIKNKPRVNEDPKDALLREFQEEIARL
  rate of ATP hydrolysis (kinesin ATPase end-point assay, free phosphate) with increasing amounts of microtubules: When compared to wild-type, the mutant motor domain displayed a significantly reduced rate of ATP hydrolysis upon incubation with various concentrations of microtubules
